Data on one molecule can be found in patent US20250215104A1.

Experiment [1] deals with T1, human suPAR (hsuPAR) recombinant protein (human), Q03405. Nature of the experiment: BLI (Octet Red96E), hsuPAR 2 µg/mL on streptavidin sensor, vitronectin as analyte. On the technique in general: Biolayer interferometry detects binding as a change in optical thickness at a sensor tip.
For experiment [2], the target named is T1, human suPAR (hsuPAR) recombinant …. The experiment is described as follows: BLI (Octet Red96E), WAb0014 on AHC sensor, hsuPAR captured, vitronectin as analyte (in the presence of WAb0014).
For experiment [3] the target is unchanged. The experiment is described as follows: BLI, with WAb0014 against without. The conditions noted are these: remark: other sources report otherwise.

T1 sequence (Q03405 23-303): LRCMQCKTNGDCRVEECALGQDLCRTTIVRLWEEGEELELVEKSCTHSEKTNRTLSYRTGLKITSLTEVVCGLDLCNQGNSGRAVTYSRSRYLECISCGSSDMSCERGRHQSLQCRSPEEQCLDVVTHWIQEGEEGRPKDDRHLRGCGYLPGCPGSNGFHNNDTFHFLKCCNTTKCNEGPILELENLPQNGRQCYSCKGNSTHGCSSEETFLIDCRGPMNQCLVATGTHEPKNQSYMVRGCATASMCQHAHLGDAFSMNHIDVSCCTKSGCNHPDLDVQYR

B1: vitronectin, P04004 20-478 (ligand)
chain: DQESCKGRCTEGFNVDKKCQCDELCSYYQSCCTDYTAECKPQVTRGDVFTMPEDEYTVYDDGEEKNNATVHEQVGGPSLTSDLQAQSKGNPEQTPVLKPEEEAPAPEVGASKPEGIDSRPETLHPGRPQPPAEEELCSGKPFDAFTDLKNGSLFAFRGQYCYELDEKAVRPGYPKLIRDVWGIEGPIDAAFTRINCQGKTYLFKGSQYWRFEDGVLDPDYPRNISDGFDGIPDNVDAALALPAHSYSGRERVYFFKGKQYWEYQFQHQPSQEECEGSSLSAVFEHFAMMQRDSWEDIFELLFWGRTSAGTRQPQFISRDWHGVPGQVDAAMAGRIYISGMAPRPSLAKKQRFRHRNRKGYRSQRGHSRGRNQNSRRPSRATWLSLFSSEESNLGANNYDDYRMDWLVPATCEPIQSVFFFSGDKYYRVNLRTRRVDTVDPPYPRSIAQYWLGCPAPGHL
Broadly, the Kd is the free concentration of one partner at which half of the binding sites on the other are occupied at equilibrium, for simple one-to-one binding. On to B1, for which the Kd in experiment [1] worked out at 13.5 nM; in experiment [2], 62.2 nM. For the same molecule, the fold reduction in affinity in the presence of WAb0014 in experiment [3] stood at 5 fold.
